Laboratory results as given in patent publication US20040005636A1, “Method for obtaining the binding affinities of a peptide library to a protein” (priority 2002, published 2004).
Ends that are not written are not given here. Peptide text beside a SMILES is read from it. * marks the point of attachment. Fluorescein(5-NHCOCH2) = O=C(C*)Nc1ccc2c(c1)C(=O)OC21c2ccc(O)cc2Oc2cc(O)ccc21

T1: hERα-LBD (Homo sapiens, UniProt P03372)
T1 construct: The receptor ERα-LBD or TRβ-LBD, expressed using reported protocols; made in house
T1 sequence (P03372 311-547 limits assumed): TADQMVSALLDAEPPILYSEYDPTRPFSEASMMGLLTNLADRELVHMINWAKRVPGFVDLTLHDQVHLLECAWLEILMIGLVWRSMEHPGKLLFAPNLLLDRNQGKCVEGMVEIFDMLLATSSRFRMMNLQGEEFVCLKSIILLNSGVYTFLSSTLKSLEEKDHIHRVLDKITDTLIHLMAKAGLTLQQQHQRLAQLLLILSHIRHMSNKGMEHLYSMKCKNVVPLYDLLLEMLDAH

T2: hERα-LBD (ligand binding domain of estrogen receptor α) (human, UniProt P03372 297-554)
T2 construct: Assayed with estradiol, diethylstilbestrol, genistein or tamoxifen present; the ligand is named under assay in each row
T2 sequence (looked up): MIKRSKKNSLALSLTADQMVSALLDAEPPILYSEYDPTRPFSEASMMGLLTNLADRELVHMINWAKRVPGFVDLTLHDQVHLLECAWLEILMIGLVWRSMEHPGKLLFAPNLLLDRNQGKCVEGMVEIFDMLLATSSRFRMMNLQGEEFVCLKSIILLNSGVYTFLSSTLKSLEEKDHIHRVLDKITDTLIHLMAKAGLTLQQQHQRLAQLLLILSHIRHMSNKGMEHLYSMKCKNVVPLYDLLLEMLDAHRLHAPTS

T3: hTRβ-LBD (ligand binding domain of thyroid hormone receptor β) (human, UniProt P10828 202-461)
T3 construct: Assayed with the small-molecule ligand T3 present
T3 sequence (looked up): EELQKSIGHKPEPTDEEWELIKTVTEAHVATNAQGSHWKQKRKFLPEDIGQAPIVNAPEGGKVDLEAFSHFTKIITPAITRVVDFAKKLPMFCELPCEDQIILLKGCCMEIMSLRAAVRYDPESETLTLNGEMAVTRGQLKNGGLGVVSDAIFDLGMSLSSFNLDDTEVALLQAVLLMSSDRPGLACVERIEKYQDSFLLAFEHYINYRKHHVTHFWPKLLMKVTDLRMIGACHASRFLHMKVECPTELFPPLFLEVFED


Experiments:
hERα-LBD = molecular target: T1, hERα-LBD; test: Fluorescence polarization assay of coregulator peptide binding to ERα-LBD; conditions: ERα-LBD in the presence of estradiol; read-out: Dissociation constant for ERα, Estradiol
Method: The peptide library synthesized in Example 1 was assayed with ERα or TRβ receptor. Library members were kept at a constant concentration of 10 nM. A ligand was optionally added to the nuclear hormone receptor.
The receptor ERα-LBD or TRβ-LBD, expressed using reported protocols (for TR see, e.g., Darimont et al., Genes Dev., 12(21):3343-56, (1998); and for ER, see, e.g., Shiau et al., Cell, (1998), 95(7):927-937), was used. The concentration of protein varied between 0.001-20 μM in the following way. In 96 well plates, hTRβ-LBD or hERα-LBD was serially diluted from 40 μM to 0.002 μM in binding buffer (50 mM Sodium Phosphate, 150 mM NaCl, pH 7.2, 1 mM DTT, 1 mM EDTA, 0.01% NP40, 10% glycerol), containing 200 μM ligand (T3, for TRβ, or estradiol, diethylstilbestrol, genistein or tamoxifen for ERα).
(§1) Subsequently 10 μL of diluted protein was added to 10 μL of fluorescent coregulator peptide (20 nM) in 384-well plates yielding final protein concentrations of […] and 10 nM fluorescent peptide concentration. The samples were allowed to equilibriate for 30 minutes. Binding was then measured using fluorescence polarization (excitation λ at 485 nm, emission λ at 530 nm) on an Analyst AD (available from Molecular Devices).
(§2) All experiments were carried out in quadruplicate, with each iteration containing the positive and negative controls, and 10-12 dose points. The data were then fit using Klotz plots to determine IC50 values using nonlinear regression analysis that fits the data to a modification of the model of Heyduk and Lee. (Heyduk et al., Proc. Natl. Acad. Sci., (1990), 1774; Heyduk et al., Nature, (1993), 364, 6437; Heyduk et al., Methods Enzymol., 274, 492. Further analysis was conducted using Hill and Scatchard plots to confirm number and homogeneity of binding sites as discussed hereinbelow.
FIG. 6 illustrates direct binding of SRC2-2 to ERα-LBD in the presence of the ligands estradiol, diethylstilbestrol and genistein. […] Measured dissociation constants for binding of members of the SRC peptide library to ERα, in the presence of 3 different ligands, are illustrated in Table 4 wherein the binding units are μM. Table 5 illustrates a comparison of binding constants (μM) for SRC peptides with the TRβ receptor in the presence of thyroid hormone T3, and the ERα receptor in the presence of estradiol.

[1] = molecular target: T2, hERα-LBD (ligand binding domain of …); test: fluorescence polarization, labelled peptide 10 nM, hERα-LBD titrated, genistein present
Method: (§3) The concentration of protein varied between 0.001-20 μM in the following way. In 96 well plates, hTRβ-LBD or hERα-LBD was serially diluted from 40 μM to 0.002 μM in binding buffer (50 mM Sodium Phosphate, 150 mM NaCl, pH 7.2, 1 mM DTT, 1 mM EDTA, 0.01% NP40, 10% glycerol), containing 200 μM ligand (T₃, for TRβ, or estradiol, diethylstilbestrol, genistein or tamoxifen for ERα).
as §1
as §2, with “IC₅₀” for “IC50”

[2] = molecular target: T2, hERα-LBD (ligand binding domain of …); test: fluorescence polarization, labelled peptide 10 nM, hERα-LBD titrated, diethylstilbestrol present
Method: as §3, §1
as §2, with “IC₅₀” for “IC50”

[3] = molecular target: T3, hTRβ-LBD (ligand binding domain of …); test: fluorescence polarization, hTRβ-LBD titrated, T3 present; Table 3 prints >AL (assay limits) for this pair
Method: as §3, §1
as §2, with “IC₅₀” for “IC50”

Kd (hERα-LBD)	Kd [1]	Kd [2]	Kd [3]	Molecule
1210 nM	–	–	–	CC(C)C[C@H](NC(=O)[C@H](CCC(N)=O)NC(=O)[C@@H](NC(=O)[C@H](CC(C)C)NC(=O)[C@H](CCCCN)NC(=O)[C@H](Cc1c[nH]cn1)NC(=O)[C@H](CO)NC(=O)[C@@H](NC(=O)[C@H](CCC(N)=O)NC(=O)[C@H](CO)NC(=O)[C@H](Cc1ccc(O)cc1)NC(=O)[C@@H](N)CSCC(=O)Nc1ccc2c(c1)C(=O)OC21c2ccc(O)cc2Oc2cc(O)ccc21)[C@@H](C)O)C(C)C)C(=O)N[C@@H](CC(C)C)C(=O)N[C@H](C(=O)N[C@H](C(=O)N[C@H](C(=O)N[C@@H](C)C(=O)N[C@@H](CCC(=O)O)C(=O)N[C@@H](CCC(N)=O)C(=O)N[C@@H](CCC(N)=O)C(=O)O)[C@@H](C)O)[C@@H](C)O)[C@@H](C)O [SRC1-1] (H-C(Fluorescein(5-NHCOCH2))YSQTSHKLVQLLTTTAEQQ-OH)
2540 nM	–	–	–	CC(C)C[C@H](NC(=O)[C@H](CC(=O)O)NC(=O)[C@H](CCCCN)NC(=O)[C@H](CCC(=O)O)NC(=O)[C@H](CC(=O)O)NC(=O)[C@H](CCCCN)NC(=O)[C@H](CC(=O)O)NC(=O)[C@H](CC(C)C)NC(=O)[C@H](CC(C)C)NC(=O)[C@H](Cc1ccc(O)cc1)NC(=O)[C@H](CCCNC(=N)N)NC(=O)[C@H](CC(C)C)NC(=O)[C@H](CC(C)C)NC(=O)[C@H](CCC(N)=O)NC(=O)[C@H](Cc1c[nH]cn1)NC(=O)[C@H](CC(=O)O)NC(=O)[C@H](CCCCN)NC(=O)[C@H](CO)NC(=O)[C@H](CCC(=O)O)NC(=O)[C@@H](N)CSCC(=O)Nc1ccc2c(c1)C(=O)OC21c2ccc(O)cc2Oc2cc(O)ccc21)C(=O)O [SRC1-3]
927 nM	–	–	–	CSCC[C@H](NC(=O)[C@H](CCC(N)=O)NC(=O)[C@H](CC(=O)O)NC(=O)[C@H](CO)NC(=O)[C@H](CCCCN)NC(=O)[C@@H](NC(=O)[C@@H](NC(=O)[C@H](CC(C)C)NC(=O)[C@H](CC(C)C)NC(=O)[C@H](CCC(N)=O)NC(=O)[C@H](CC(C)C)NC(=O)[C@H](CC(C)C)NC(=O)[C@H](CCCCN)NC(=O)[C@@H](NC(=O)[C@H](CCC(N)=O)NC(=O)CNC(=O)[C@H](CCCCN)NC(=O)[C@H](CO)NC(=O)[C@H](CC(=O)O)NC(=O)[C@@H](N)CSCC(=O)Nc1ccc2c(c1)C(=O)OC21c2ccc(O)cc2Oc2cc(O)ccc21)[C@@H](C)O)[C@@H](C)O)[C@@H](C)O)C(=O)O [SRC2-1] (H-C(Fluorescein(5-NHCOCH2))DSKGQTKLLQLLTTKSDQM-OH)
363 nM	–	–	–	CC[C@H](C)[C@H](NC(=O)[C@H](CCCNC(=N)N)NC(=O)[C@H](Cc1c[nH]cn1)NC(=O)[C@H](CCCCN)NC(=O)[C@H](CCC(=O)O)NC(=O)[C@H](CCC(N)=O)NC(=O)[C@H](CC(C)C)NC(=O)[C@@H](N)CSCC(=O)Nc1ccc2c(c1)C(=O)OC21c2ccc(O)cc2Oc2cc(O)ccc21)C(=O)N[C@@H](CC(C)C)C(=O)N[C@@H](Cc1c[nH]cn1)C(=O)N[C@@H](CCCCN)C(=O)N[C@@H](CC(C)C)C(=O)N[C@@H](CC(C)C)C(=O)N[C@@H](CCC(N)=O)C(=O)N[C@@H](CC(N)=O)C(=O)NCC(=O)N[C@@H](CC(N)=O)C(=O)N[C@@H](CO)C(=O)N1CCC[C@H]1C(=O)N[C@@H](C)C(=O)O [SRC3-2] (H-C(Fluorescein(5-NHCOCH2))LQEKHRILHKLLQNGNSPA-OH)
–	298 nM	302 nM	–	C(5‑iodoacetamidofluorescein)LTARHKILHRLLQEGSPSD [SRC1-2 coregulator peptide]
–	1030 nM	415 nM	100 µM	C(5‑iodoacetamidofluorescein)LQEKHRILHKLLQNGNSPA [SRC3-2 coregulator peptide]
–	2550 nM	1460 nM	100 µM	C(5‑iodoacetamidofluorescein)ESKDHQLLRYLLDKDEKDL [SRC1-3 coregulator peptide]
–	2600 nM	896 nM	100 µM	C(5‑iodoacetamidofluorescein)DSKGQTKLLQLLTTKSDQM [SRC2-1 coregulator peptide]
–	5000 nM	853 nM	100 µM	C(5‑iodoacetamidofluorescein)YSQTSHKLVQLLTTTAEQQ [SRC1-1 coregulator peptide]
–	569 nM	277 nM	–	CLKEKHKILHRLLQDSSSPV (5-iodoacetamidofluorescein coupled to the amino terminal cysteine, also called SRC2-2 peptide) [SRC2-2 coregulator peptide]
